According to article doi:10.1101/2024.07.30.605930 (bioRxiv, 2024):
Substitutions are numbered along the chain they refer to. In names and notes the source's numbering stands. Several values for one entry are separate records, joined by “and”; a condition that tells them apart may be missing. Equal entries are not always repeated.

B1: FliF (natural protein, Salmonella enterica serovar Typhimurium, UniProt P15928 1-560, looked up)
chain: MSATASTATQPKPLEWLNRLRANPRIPLIVAGSAAVAIVVAMVLWAKTPDYRTLFSNLSDQDGGAIVAQLTQMNIPYRFANGSGAIEVPADKVHELRLRLAQQGLPKGGAVGFELLDQEKFGISQFSEQVNYQRALEGELARTIETLGPVKSARVHLAMPKPSLFVREQKSPSASVTVTLEPGRALDEGQISAVVHLVSSAVAGLPPGNVTLVDQSGHLLTQSNTSGRDLNDAQLKFANDVESRIQRRIEAILSPIVGNGNVHAQVTAQLDFANKEQTEEHYSPNGDASKATLRSRQLNISEQVGAGYPGGVPGALSNQPAPPNEAPIATPPTNQQNAQNTPQTSTSTNSNSAGPRSTQRNETSNYEVDRTIRHTKMNVGDIERLSVAVVVNYKTLADGKPLPLTADQMKQIEDLTREAMGFSDKRGDTLNVVNSPFSAVDNTGGELPFWQQQSFIDQLLAAGRWLLVLVVAWILWRKAVRPQLTRRVEEAKAAQEQAQVRQETEEAVEVRLSKDEQLQQRRANQRLGAEVMSQRIREMSDNDPRVVALVIRQWMSNDHE
B2: FliF(Δ214–220) (natural protein, Salmonella enterica serovar Typhimurium)
chain: MSATASTATQPKPLEWLNRLRANPRIPLIVAGSAAVAIVVAMVLWAKTPDYRTLFSNLSDQDGGAIVAQLTQMNIPYRFANGSGAIEVPADKVHELRLRLAQQGLPKGGAVGFELLDQEKFGISQFSEQVNYQRALEGELARTIETLGPVKSARVHLAMPKPSLFVREQKSPSASVTVTLEPGRALDEGQISAVVHLVSSAVAGLPPGNVTLVTQSNTSGRDLNDAQLKFANDVESRIQRRIEAILSPIVGNGNVHAQVTAQLDFANKEQTEEHYSPNGDASKATLRSRQLNISEQVGAGYPGGVPGALSNQPAPPNEAPIATPPTNQQNAQNTPQTSTSTNSNSAGPRSTQRNETSNYEVDRTIRHTKMNVGDIERLSVAVVVNYKTLADGKPLPLTADQMKQIEDLTREAMGFSDKRGDTLNVVNSPFSAVDNTGGELPFWQQQSFIDQLLAAGRWLLVLVVAWILWRKAVRPQLTRRVEEAKAAQEQAQVRQETEEAVEVRLSKDEQLQQRRANQRLGAEVMSQRIREMSDNDPRVVALVIRQWMSNDHE
B3: FliFΔ(221–227) (natural protein, Salmonella enterica serovar Typhimurium)
chain: B2 chain with T214D, N217G, T218H, S219L, G220L
B4: FliF(Δ165–167) (natural protein, Salmonella enterica serovar Typhimurium)
chain: MSATASTATQPKPLEWLNRLRANPRIPLIVAGSAAVAIVVAMVLWAKTPDYRTLFSNLSDQDGGAIVAQLTQMNIPYRFANGSGAIEVPADKVHELRLRLAQQGLPKGGAVGFELLDQEKFGISQFSEQVNYQRALEGELARTIETLGPVKSARVHLAMPKPSLEQKSPSASVTVTLEPGRALDEGQISAVVHLVSSAVAGLPPGNVTLVDQSGHLLTQSNTSGRDLNDAQLKFANDVESRIQRRIEAILSPIVGNGNVHAQVTAQLDFANKEQTEEHYSPNGDASKATLRSRQLNISEQVGAGYPGGVPGALSNQPAPPNEAPIATPPTNQQNAQNTPQTSTSTNSNSAGPRSTQRNETSNYEVDRTIRHTKMNVGDIERLSVAVVVNYKTLADGKPLPLTADQMKQIEDLTREAMGFSDKRGDTLNVVNSPFSAVDNTGGELPFWQQQSFIDQLLAAGRWLLVLVVAWILWRKAVRPQLTRRVEEAKAAQEQAQVRQETEEAVEVRLSKDEQLQQRRANQRLGAEVMSQRIREMSDNDPRVVALVIRQWMSNDHE
B5: FliF(G217W) (natural protein, Salmonella enterica serovar Typhimurium)
chain: B1 chain with G217W
B6: FliF(G217P) (natural protein, Salmonella enterica serovar Typhimurium)
chain: B1 chain with G217P
B7: FliF(G217A) (natural protein, Salmonella enterica serovar Typhimurium)
chain: B1 chain with G217A

Molecular target: the molecule itself
Test: cryo-EM structure

Protein	stoichiometry N
B1	33 and 34

Molecular target: the molecule itself
Test: negative-stain EM

Protein	binding result
B2	binds
B3	binds
B4	binds
B5	binds
B6	binds
B7	binds
